In paper doi:10.1101/2024.02.29.582761:

Key:
Test in all cases: BLI
[1] = molecular target: His-SUMO-GroTAC1 (E. coli)
[2] = molecular target: His-SUMO-XB-GGS peptide (E. coli)
His-SUMO-GGS-SBP peptide = molecular target: His-SUMO-GGS-SBP peptide

Kd [1]	Kd [2]	Kd (His-SUMO-GGS-SBP peptide)	Substance
70 nM	65 nM	–	ClpX (from UniProt P0A6H1 1-424) (enzyme)
154 nM	–	94 nM	GroEL (from UniProt P0A6F5 1-548) (natural protein)
